Experimental data: patent publication US20020102709A1

What was measured:
[1] = molecular target: bovine serum albumin (BSA, Sigma) (bovine) (UniProt P02769); assay: ELISA, serum albumin coated, FNCBD-EGF (concentration not given), detection with anti-FNCBD monoclonal antibody
[2] = molecular target: bovine serum albumin (BSA, Sigma) (bovine) (UniProt P02769); assay: ELISA, serum albumin coated, 0.1 µg/ml FNCBD-FGF, detection with anti-FNCBD monoclonal antibody

UniProt P02769, sequence (P02769 25-607 limits assumed): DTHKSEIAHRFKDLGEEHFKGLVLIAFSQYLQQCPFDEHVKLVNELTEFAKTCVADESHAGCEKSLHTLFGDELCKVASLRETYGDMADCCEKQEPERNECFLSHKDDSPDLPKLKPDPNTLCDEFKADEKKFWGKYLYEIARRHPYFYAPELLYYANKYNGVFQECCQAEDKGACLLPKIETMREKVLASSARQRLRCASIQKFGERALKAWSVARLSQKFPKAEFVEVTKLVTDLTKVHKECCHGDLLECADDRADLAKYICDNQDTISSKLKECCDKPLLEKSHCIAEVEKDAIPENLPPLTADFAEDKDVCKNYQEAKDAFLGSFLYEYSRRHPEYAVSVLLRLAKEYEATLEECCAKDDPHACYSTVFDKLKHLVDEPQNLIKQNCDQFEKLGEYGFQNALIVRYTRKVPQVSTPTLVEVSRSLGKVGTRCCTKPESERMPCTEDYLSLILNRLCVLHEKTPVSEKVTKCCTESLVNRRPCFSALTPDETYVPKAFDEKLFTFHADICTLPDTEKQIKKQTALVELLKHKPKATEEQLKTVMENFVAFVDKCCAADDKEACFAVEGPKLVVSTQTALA

| Substance | absorption at 492 nm (absorption (492 nm)) [1] | absorption at 492 nm (absorption (492 nm)) [2] |
| --- | --- | --- |
| human FNCBD/human EGF hybrid polypeptide (FNCBD-EGF) | 0.11 | – |
| human FNCBD/human bFGF hybrid polypeptide (FNCBD-FGF) | – | 0.27 |
